In the assay the target is T1, human IL-13R130Q (human, UniProt P35225 35-146, mildly biotinylated (approximately 1-2 molecules per molecule IL-13R130Q) in ELISA screens and receptor binding assays; not biotinylated when amine-coupled to the Biacore chip ; Mildly biotinylated …).
T1 construct: also called IL-13 R130Q variant; biotinylated IL-13R130Q
The experiment in a line: method and antigen form not given. As for the experimental part:
Affinity determination by surface plasmon resonance (BIAcore™). […] F1 chips (Biacore, Sweden) were coated with ˜800 RU IL-13R130Q (250 μg/ml, 10 mM acetate buffer, pH 4.0) and respective amount of HSA (20 μg/ml/10 mM acetate buffer, pH 4.5) to the reference flow cell, using standard EDC-NHS amine coupling chemistry. Due to the instability of the antigen on the chip a freshly prepared chip was used for every measurement. Regeneration was done with 2×5 μl pulses of 10 mM HCl. All kinetic measurements were performed in PBS buffer (136 mM NaCl, 2.7 mM KCl, 10 mM Na₂HPO₄, 1.76 mM KH₂PO₄ pH 7.4) at a flow rate of 20 μl/min using Fab concentration range from 1.5-500 nM. Injection time for each concentration was 1 min. All sensograms were fitted globally using BIA evaluation software 3.1. Abbreviations: EDC 1-Ethyl-3-(3-Dimethlaminopropyl) carbodiimide; NHS N-hydroxysuccinimide; RU Resonance Units

Results on 1 molecule are retold here after patent publication US20080044420A1 (published 2008).

A value given as a limit tells only on which side of the number the result lay.

T1 sequence (P35225 35-146 limits assumed): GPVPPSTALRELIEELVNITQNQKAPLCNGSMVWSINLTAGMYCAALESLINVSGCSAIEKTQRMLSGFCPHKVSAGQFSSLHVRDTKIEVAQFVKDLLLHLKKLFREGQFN

B1: lead candidate SEQ ID NOS:48-49 (HC AA50 Gly, AA54 Asp, AA56 Ser; LC AA1 Ser, AA2 Tyr) (Fab, V domains shown)
VH: QVQLVESGGGLVQPGGSLRLSCAASGFTFNSYWINWVRQAPGKGLEWVSGIAYDSSNTLYADSVKGRFTISRDNSKNTLYLQMNSLRAEDTAVYYCARGLGAFHWDMQPDYWGQGTLVTVSS
VL: SYELTQPPSVSVAPGQTARISCSGDNIGGTFVSWYQQKPGQAPVLVIYDDNDRPSGIPERFSGSNSGNTATLTISGTQAEDEADYYCGTWDMVTNNVFGGGTKLTVL
notes: also called final lead candidate
Take B1: the Kd (as a rule, the concentration at which binding is half-saturated) is below 10 µM.
